Reference: the nanobody polyreactivity screen of Harvey et al. (2022)

assay: yeast display, Sf9 membrane polyspecificity reagent, FACS + sequencing; frameworks hold sequencing errors
Method in brief: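 Polyreactivity labels are assigned by the sorting gate from which each nanobody was recovered. The gates were low and high (top ~1%), set on anti-HA fluorescence for expression and streptavidin fluorescence for reagent binding. Before sorting, galactose-induced (36–48 hours) yeast display cells were stained for 1 hour at 4 °C with 10% biotinylated, detergent-solubilized Sf9 membrane reagent.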

Sequence	polyreactivity (PSR sort gate)
QVQLVESGGGLVQAGGSLRLSCAASGFTLAWYAMGWYRQAPGKERELVATIRSGGNTYYADSVKGRFTISRDNAKNTVYLQMNSLKPEDTAVYYCAKTHTYPRYGRGYDYWGQGTQVTVSS	high polyreactivity
QVQLVESGGGLVQAGGSLRLSCAASGFTLDWYVMGWYRQAPGKDRELVAAISSSGGRTYYADSVKGRFTISRDNAKNTVYLQMNSLKPEDTAVYYCAARNKYGGYPYGYDYWGQGTQVTVSS	high polyreactivity
QVQLVESGGGLVQAGGSLRLSCAASGFTLDWYVMGWYRQAPGKERELVAAISSSGGRTYYADSVKGRFTISRDNAKNTVSLQLNSLKPEDTAVYYCAARNKYGGYPYGYDYWGQGTQVTVSS	high polyreactivity
QVQLVESGGGLVQAGGSLRLSCAASGFTLDWYVMGWYRQAPGKERELVAAISSSGGRTYYADSVKGRFTISRDNAKNTVYLQMNSLKPEDPAVYYCAARNKYGGYPYGYDYWGQGTQVTVSS	high polyreactivity
QVQLVESGGGLVQAGGSLRLSCAASGFTLEFYAMGWYRQAPGKERELVAAISKSGGSTYYADSVKGRFTISRDNAKNTVYLQMNSLKPEDTAVYYCAKVNSYGPVPDRYDYWGQGTQVTVSS	high polyreactivity
QVQLVESGGGLVQAGGSLRLSCAASGFTLEFYAMGWYRQAPGKERELVASISSGGRTNYADSVKGRFTISRDNAKNTVFLQMNSLKPEDTAVYYCAAEYRSWGRYRYRFNYWGQGTQVTVSS	high polyreactivity
QVQLVESGGGLVQAGGSLRLSCAASGFTLENYAMGWYRQAPGKARELVAAINCRGSRTYYADSVKGRFTISRDNAMNTVYLQMNSLKPEDTAVYYCARDKRTNSGFYYWGQGTQVTVSS	high polyreactivity
QVQLVESGGGLVQAGGSLRLSCAASGFTLGFNARGWYRQAPGKERELVAAITIGGTTYYADSVKGRFTISRDNAKNTVYLQMNSLKPEDTAVYYCAAARFLWFYVYTTRVQRYGYWGQGTQVTVSS	low polyreactivity
QVQLVESGGGLVQAGGSLRLSCAASGFTLGFYAMAWYRPAPGKERELVAAINWRGGSTYYADSVKGRFTISRYNAKNTVYLQMNSLKPADTAVYYSNRVYRPSLYDYWGQGTQVSVSS	high polyreactivity
QVQLVESGGGLVQAGGSLRLSCAASGFTLGLYAMGWYRQAPGKERELVAAITAGGDSTDYADSVKGRFTISRDNAKNTVYLQMNSLKPEDTAVYYCAAPSYWLYYYILDSSDYWGQGTQVTVSS	high polyreactivity
QVQLVESGGGLVQAGGSLRLSCAASGFTLGSKVMGWYRQAHGKERELVAGISQSGGRTFYADSVKGRFTISRDNAKNTVYLQMNSLKPEDTAVYYCAAGYYPYWGQGTLVTVSS	low polyreactivity
QVQLVESGGGLVQAGGSLRLSCAASGFTLGYNAMGWYRQAPGTERELVAAITRSGGSTYYADSVKGRFTISRDNAKNTVYLQMNSLKPEDTAVYYCNARSVYGSKQEEYWGQGTQVTVSS	high polyreactivity
QVQLVESGGGLVQAGGSLRLSCAASGFTLHVYAMGWYRQAPGKERELVAAISTGGNTNYADSVKGRFTISRDNAKNTVYLQMNSLKAEDTAVYYCNARYTSRRSRRPYYEWGQGTQVTVSS	high polyreactivity
QVQLVESGGGLVQAGGSLRLSCAASGFTLIDYAMGWYRQAPGKERELVAAISGSGGRTYYADSVKGRFTISRDNAKNTVYLQMNSLKPEDTAVYYCAAGRRHVYKRRRYDYWGQGTQVTVSS	high polyreactivity
QVQLVESGGGLVQAGGSLRLSCAASGFTLLTYVMGWYRQAPGKERELVAAISKSGSRTYYADSVKGRFTISRDNAKNTVYVQMNSLKPEDTPVYYCAADTSAYRYDYWGQGTQVTVSS	high polyreactivity
QVQLVESGGGLVQAGGSLRLSCAASGFTLPLYAMGWYRQAPGKERELVAAISSGGGRTYYADSVKGRFTISRDNAKNTVYLQMNSLKPEDTAVYYCNVDRWWLGWYKFNYWGQGTQVTVSS	high polyreactivity
QVQLVESGGGLVQAGGSLRLSCAASGFTLPVYAMGWYRQAPGKERELVARITWSAGRTYYADSVKGRFTISRDNAKNTVYLQMNSLKPEDTAVYYCAAGPVSQQHSPGPHDYWGQGTQVTVSS	high polyreactivity
QVQLVESGGGLVQAGGSLRLSCAASGFTLQGYAMGWYRQAPGKERELVAAIRWIGTSTYYADSVKGRFTISRDNAKNTVYLQMNSLKPEDTAVYYCAAVVRRVRPEGSYNRWGHDYWGQGTQVTVSS	high polyreactivity
QVQLVESGGGLVQAGGSLRLSCAASGFTLQSNAMGWFRQATGKERELVAAISFRGGSTYYADSVKGRFTISRDNAKNTVYLQMNSLKPEDTAVYYCAADFYFHSAYNYGYWGQGTQVTVSS	low polyreactivity
QVQLVESGGGLVQAGGSLRLSCAASGFTLRKYVMGWYRQAPGKERELVAAITSSASSTYYADTVKGRFTISRDNAKNTVYLQMNSMKPEDTAVYYCAARGRPYRGSYYWGQGTQVTVSS	high polyreactivity
QVQLVESGGGLVQAGGSLRLSCAASGFTLRSYTMGWYRQAPGKERELVAAITSRGTSTYYADSVKGRFTISRDNAKNTVYLQMNSLKPEDTAVYYCADPIYNGYASWQVYYWGQGTQVTVSS	high polyreactivity
QVQLVESGGGLVQAGGSLRLSCAASGFTLRYYAMGWYRQAPGKERELVATINRSGASTYYADSVKGRFTISRDNAKNTVYLQMNRLKPEDTAVYYCNTATSRAYRYDYWGQGTQVTVSS	high polyreactivity

Sequence	polyreactivity (PSR sort gate)
QVQLVESGGGLVQAGGSLRLSCAASGFTLSRYAMGWYRQAPGKERELVAAISSSGDSTYYADSVKGRFTISRDNAKNTVYLQMNSLKPEDTAVYYCNVYTYHRYDYWGQGTQVTVSS	high polyreactivity
QVQLVESGGGLVQAGGSLRLSCAASGFTLSYYAMGWYRQAPGKERELVASISAIGGITYYADSVKGRFTISRDNAKNTVYLQMNSLKPEDTAVYYCARQGRRYRRFDSWGQGTKVTVSS	high polyreactivity
QVQLVESGGGLVQAGGSLRLSCAASGFTLWLNAMGWYRQAPGKERELVAAITTSDDGTYYADSVKGRFTISRDNAKNSVYLQMNSLKPEDTAVYYCAADYYSVLYDYWGQGTQVTVSS	low polyreactivity
QVQLVESGGGLVQAGGSLRLSCAASGFTLYFYVMGWYRQAPGKERELVAAITSGGSTYYADSVKGRFTISRDNAKNTVYLQMNSLKPEDTAVYYCAARRSPSRRYLGNYWGQGTQVTVSS	high polyreactivity
QVQLVESGGGLVQAGGSLRLSCAASGFTLYHYAMGWYRQAPGKERELVAAITTSGSRTYYADSVKGRFTISRDNAKNTVYLQMNSLKPEDTAVYYCNAVASSTEYDYWGQGTQVTVSS	high polyreactivity
QVQLVESGGGLVQAGGSLRLSCAASGFTLYPYGMGWYRQAAGKERELVASISSRVGRTYYADSVKGRFTISRDNAKNTVYLQMNSLKPEDTAVYYCAASRLVRYQSRYASWGQGTQVTVSS	high polyreactivity
QVQLVESGGGLVQAGGSLRLSCAASGFTLYSNTMGWYRQATGKERELVAAINYSGGSTYYADSVKGRFTISRDNAKNTVYLQMNSLKPEDTPVYYCATDLHWLVTKYGYWGQGTQVTVSS	low polyreactivity
QVQLVESGGGLVQAGGSLRLSCAASGFTLYSYAMGWYRQAPGKERELVAAITRSGGITYYADSVKGRFTISRDNAKNTVYLQMNSLKPEDTAVYYCNAYRGGLSSEHYYWGQGTQVTVSS	high polyreactivity
QVQLVESGGGLVQAGGSLRLSCAASGFTLYSYVMGWYRQAPGKERELVAAISRSGVSTHYADSVKGRFTISRDNAKNTVYLQMNSLKPEDTAVYYCNKVYYYVGTLDYWGQGTQVTVSS	high polyreactivity
QVQLVESGGGLVQAGGSLRLSCAASGFTNAYYAMGWYRQAPGKEREFVASITSGGSTYYADSVKGRFTISRDNAKNTVYLQMNSLKPEDTAVYYCAARSPFYSYTPGYEYWGQGTQVTVSS	high polyreactivity
QVQLVESGGGLVQAGGSLRLSCAASGFTRIYAMGWYRQAPGKEREMVAAISQRGGRTYYADSVKGRFTISRDNAKNTVSLQKNSLKQEDTAVYYCNSDLRSYNYPEYEYDYWGQGTQVTVSS	high polyreactivity
QVQLVESGGGLVQAGGSLRLSCAASGFTSAPYAMGWYRQAPGKERELVAAISSGDTTSYADSVKGRFTISRDNAKNTVYLQMNSLKPEDTAVYYCAAVYFNVIESYKTAGYDYWGQGTQVTVSS	low polyreactivity
QVQLVESGGGLVQAGGSLRLSCAASGFTSAPYAMGWYRQAPGKERELVAAITRTGGSTYYADSVKGRFTISRDNAKNTVYLQMNSLKPEDTAVYYCAVRLSGYQYHFRYGYWGQGTQVTVSS	high polyreactivity
QVQLVESGGGLVQAGGSLRLSCAASGFTSFANAMGWYRQAPGKERELVASITNSGGSTHYADSVKGRFTISRDNAKNTVYLQMNSLKPEDTAVYYCAADYWIVYRIYGSKYLGKWYDYWGQGTQVTVSS	low polyreactivity
QVQLVESGGGLVQAGGSLRLSCAASGFTSRRYAMGWYRQAPGKERELVAAISWSGGSTYYADSVKGRFTISRDNAKNTVYLQMNSLKPEDTAVYYCAAKRYSSKRGLDYWGQGTQVTVSS	high polyreactivity
QVQLVESGGGLVQAGGSLRLSCAASGFTSSRNAMGWYLQAPGKEREWVATISSGGDTYYADSVKGRFTISRDNAKNTVYLQMNSLKPVDTAVYYCNKDPLYDWGYDYWGHGTQVTVSS	low polyreactivity
QVQLVESGGGLVQAGGSLRLSCAASGFTSVDNAMGWYRQAPGNERELVAAIDTSGARTYYADSVKGRFTISRDNAKHTVYLQMNSLKPEDTAVYYCATEYVYDDRLYSTYYYWGQGTQVTVSS	high polyreactivity
QVQLVESGGGLVQAGGSLRLSCAASGFTSYDNAMGWYRPAPGKERELVAASTWDGGSTYYADSVKGRFTISRDNAKNTVDLQMNSLKPEDTAVYDCAADLADFYPRYNYWGQGTQVTVSS	low polyreactivity
QVQLVESGGGLVQAGGSLRLSCAASGFTTNYYARGWYRQAPGKERELVAAITTGGSTHYADSVKGRFTISRDNAKNTVYLQMNSLKPEDTAVYYCAAGTNRQQQRYFHHGGYYQYNYWGQGTQVTVSS	low polyreactivity
QVQLVESGGGLVQAGGSLRLSCAASGFTYKYYAMGWYRQAPGKERELVAAIRRSAGSTNYADSVKGRFTISRDNAKNTVYLQMNSLKPEDTAVYYCNTVGTRQPMDYWGQGTQVTVSS	high polyreactivity
QVQLVESGGGLVQAGGSLRLSCAASGFTYKYYVMGWYRQAPGKERELVASISKRGGSTRYADSVKGRFTISRDYAKNTVYLQMNSLKPEDNAVYYCAAAFVRRPPYVGYSRFDYWGQGTQVTVSS	high polyreactivity
